Patent publication US20260159596A1 (SELECXINE, published 2026)
Where a chain is given by its changes, count along the chain named.

T1: TL1A (tumor necrosis factor-like ligand 1A), His tag (human, UniProt O95150 72-251)
T1 construct: also called TL1A His tag; TL1A-His tag; not shown: His tag
T1 sequence (looked up): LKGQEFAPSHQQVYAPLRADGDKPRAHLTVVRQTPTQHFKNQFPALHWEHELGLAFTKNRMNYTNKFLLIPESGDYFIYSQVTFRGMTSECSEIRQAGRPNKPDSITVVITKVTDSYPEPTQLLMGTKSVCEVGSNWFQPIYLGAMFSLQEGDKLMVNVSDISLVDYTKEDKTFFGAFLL

T2: DR3 expressed on the cell surface (DR3 stable cell line) (human, UniProt Q93038 25-417)
T2 construct: whole, on cells; also called DR3 natural form; human DR3
T2 sequence (looked up): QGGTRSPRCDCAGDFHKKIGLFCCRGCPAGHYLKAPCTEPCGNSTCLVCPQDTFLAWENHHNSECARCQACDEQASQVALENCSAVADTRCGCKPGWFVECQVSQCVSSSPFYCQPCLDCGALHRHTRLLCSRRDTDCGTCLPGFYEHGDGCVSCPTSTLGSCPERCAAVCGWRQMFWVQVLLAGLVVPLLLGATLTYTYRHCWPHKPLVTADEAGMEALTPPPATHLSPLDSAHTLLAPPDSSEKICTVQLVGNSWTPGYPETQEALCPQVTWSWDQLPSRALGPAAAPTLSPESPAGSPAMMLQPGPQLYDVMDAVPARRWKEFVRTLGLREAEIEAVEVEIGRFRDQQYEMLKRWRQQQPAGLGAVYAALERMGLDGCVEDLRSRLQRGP

B1: recombinant DR3 (DR3-His tag) (receptor, human, UniProt Q93038 25-199, looked up)
chain: QGGTRSPRCDCAGDFHKKIGLFCCRGCPAGHYLKAPCTEPCGNSTCLVCPQDTFLAWENHHNSECARCQACDEQASQVALENCSAVADTRCGCKPGWFVECQVSQCVSSSPFYCQPCLDCGALHRHTRLLCSRRDTDCGTCLPGFYEHGDGCVSCPTSTLGSCPERCAAVCGWRQ
notes: it is treated as the same reagent; also called rDR3; death receptor 3; not shown: His tag
B2: anti-DR3 4-4 monoclonal antibody (subclass not stated) (antibody, V domains shown)
VH: EVQLVESGGGLVKPGGSLRLSCAASGFTFSDYYMSWIRQAPGKGLEWVSYISSSSSYTNYADSVKGRFTISRDNAKNSLYLQMNSLRAEDTAVYYCASNVDTAMVGAFDIWGQGTLVTVS
VL: DIEMTQSPSSVSASVGDTVTITCRASQHISNWLAWYQQKPGQAPKFLIYTASNLQSGVPSRFSGSGYGTDFTLTISGLQPEDFATYYCQQADSFPLTFGGGTKVDIK
notes: also called 4-4 mAb; clone 4-4
B3: anti-DR3 scFv clone 4-4 (phage display) (scFv, V domains shown)
VH: B2 VH
VL: B2 VL
B4: clone 4-4 IgG1 monoclonal antibody (antibody, V domains shown)
VH: B2 VH
VL: B2 VL
notes: IgG1 subclass; also called anti-DR3 4-4 IgG1 antibody
B5: clone 4-4 IgG2 monoclonal antibody (antibody, V domains shown)
VH: B2 VH
VL: B2 VL
notes: IgG2 subclass
B6: anti-DR3 4-4 IgG4 monoclonal antibody (antibody, V domains shown)
VH: EVQLVESGGGLVKPGGSLRLSCAASGFTFSDYYMSWIRQAPGKGLEWVSYISSSSSYTNYADSVKGRFTISRDNAKNSLYLQMNSLRAEDTAVYYCASNVDTAMVGAFDIWGQGTLVTVSS
VL: DIEMTQSPSSVSASVGDTVTITCRASQHISNWLAWYQQKPGQAPKFLIYTASNLQSGVPSRFSGSGYGTDFTLTISGLQPEDFATYYCQQADSFPLTFGGGTKVDIKR
notes: also called clone 4-4 IgG4; human 4-4 IgG4P mAb
B7: anti-DR3 scFv clone 2-10 (phage display) (scFv, V domains shown)
VH: QVQLVQSGAEVKKPGASVKVSCKASGYTFTSYGISWVRQAPGQGLEWMGWISAYNGNTNYAQKLQGRVTMTTDTSTSTAYMELRSLRSDDTAVYYCASGPDYGMLDYWGQGTLVTVS
VL: EIVMTQSPSSLPASVGDRVTITCQASQDISNYLNWYQQKPGKAPKLLIYDASNLETGVPSRFSGSGSGTDFTFTISSPQPEDIATYYCQQYDNLPLTFGGGTKVEIK
B8: anti-DR3 2-10 monoclonal antibody (antibody, V domains shown)
VH: B7 VH
VL: B7 VL
notes: Human IgG (detected with anti-human IgG Fc); also called 2-10 mAb; clone 2-10
B9: anti-DR3 6-15 monoclonal antibody (antibody, V domains shown)
VH: QVQLVQSGGGLVQPGGSLRLSCAASGFTFSSYSMNWVRQAPGKGLEWVSYISSSSSTIYYADSVKGRFTISRDNAKNSLYLQMNSLRAEDTAVYYCARWDGYCSGGSCYSGMDYWGQGTLVTVS
VL: B7 VL with E1D, V3E, P12S, R18K, F71S, P78L
notes: Human IgG; also called 6-15 mAb; clone 6-15
B10: anti-DR3 scFv clone 6-15 (phage display) (scFv, V domains shown)
VH: B9 VH
VL: B7 VL with E1D, V3E, P12S, R18K, F71S, P78L
B11: anti-DR3 3-18 monoclonal antibody (antibody, V domains shown)
VH: QVQLQQSGPGLVKPSETLSLTCTVSGGSISSSSYYWGWIRQPPGKGLEWIGSIYYSGSTYYNPSLKSRVTISVDTSKNQFSLKLSSVTAADTAVYYCARQVSGPLDYWGQGTLVTVS
VL: DIVMTQSPSSLSASVGDRVTITCRASQGIRNDLGWYQQKPGKAPKLLIYAASSLQSGVPSRFSGSGSGTDFTLTISSLQPEDFATYYCLQDYNYPRTFGQGTKVEIK
notes: Human IgG; also called 3-18 mAb; clone 3-18
B12: anti-DR3 scFv clone 3-18 (phage display) (scFv, V domains shown)
VH: B11 VH
VL: B11 VL

What was measured:
[1] = target: T1, TL1A (tumor necrosis factor-like ligand …); test: SPR, Biacore T100, DR3-His tag immobilized on CM5 chip; TL1A as reference
Protocol: (§1) SPR was performed using monoclonal antibodies from the clones selected in Example 1. After immobilizing 10 μg/ml DR3-His tag on a CM5 chip, the binding specificity and binding strength were measured using Biacore T100 under the conditions of a contact time of 30 sec and a flow rate of […].

[2] = target: B1; test: SPR, Biacore T100, DR3-His tag immobilized on CM5 chip
Protocol: as §1

[3] = target: T2, DR3 expressed on the cell surface (DR3 …); test: FACS on DR3 stable cell line, 2 ug/ml antibody, anti-human IgG PE
Protocol: FACS was performed using monoclonal antibodies from the clones selected in Example 1. Specifically, a DR3 stable cell line at a concentration of 0.2×10⁶ was mixed with 2 μg/ml monoclonal antibody and incubated at 4° C. for 30 minutes, and the degree of binding between the DR3 stable cell line and the monoclonal antibody was confirmed by FACS analysis using anti-human IgG PE. For each step, cells were washed once with 200 μl of PBS. Isotype control was used as a negative control.

[4] = target: B1; test: phage ELISA of single scFv clones on recombinant DR3
[5] = target: B1; test: ELISA, DR3-His tag on Ni plate, anti-human IgG Fc HRP
Protocol: The functionally best subclass of the anti-DR3 4-4 antibody identified as the best in Example 2 was analyzed. For this purpose, as anti-DR3 4-4 antibodies, clone 4-4 IgG1, clone 4-4 IgG2, and clone 4-4 IgG4 monoclonal antibodies were prepared according to IgG subclass, and ELISA was performed to compare the binding affinity to DR3. Specifically, 0.4 μg/ml DR3-His tag was put into and mixed with PBS, and then a Ni plate was coated with a total of 50 μl of the mixed solution. Thereafter, to prevent non-specific binding, the Ni plate was mixed with 200 μl of PBS consisting of 5% FBS and incubated at room temperature for 30 minutes, and incubated for 30 minutes by titrating the monoclonal antibody. The degree of binding between the coated DR3 and the monoclonal antibody was detected with anti-human IgG Fc HRP. The plate was washed five times with 250 μl of 0.1% Tween 20 at each step.

## B1
[1]
  binding result: binds

## B2
[2]
  binding result: binds
[3]
  binding result: binds

## B3
[4]
  binding result: binds

## B4
[5]
  binding result: binds

## B5
[5]
  binding result: binds

## B6
[5]
  binding result: binds

## B7
[4]
  binding result: binds

## B8
[2]
  binding result: binds

## B9
[5]
  binding result: binds
[3]
  binding result: binds

## B10
[4]
  binding result: binds

## B11
[2]
  binding result: binds

## B12
[4]
  binding result: binds
